Results taken from PMC8902617.

Target: filamentous actin (rabbit skeletal muscle actin) (UniProt P68135)
Experiment: high-speed actin cosedimentation
Conditions: F-actin 0-25 µM; parent: 93.30 ± 3.05

ASAP1 BAR-PH (residues 1-431), His6-tagged, wild type (from UniProt Q9QWY8) K153A; K156A; K159A
other: % max (maximal binding, % protein in the pellet): 88.6%
